We go through eleven molecules from patent US8461305B2, “L-fucose α1→6 specific lectin” (J-Oil Mills, Inc., priority 2008, dated 2013).

The target of assay [1] is Aspergillus oryzae lectin (AOL) of Comparison Example 2 (Aspergillus oryzae). Description: hemagglutination inhibition; glycoprotein titrated against lectin at titer 4.
Assay [2] deals with Aleuria aurantia lectin (AAL) of Comparison Example 1 (Aleuria aurantia) (UniProt P18891). The assay is described as above.
In assay [3] the target is Pisum sativum agglutinin (PSA) of Comparison Example 4 (Pisum sativum) (UniProt P02867). Described as above.
For assay [4], the target named is Stropharia rugosoannulata lectin (SRL) of Example 2 (Stropharia rugosoannulata). Described as above.
Assay [5] deals with Pholiota terrestris lectin (PTL) of Example 1 (Pholiota terrestris). The assay is described as above.
For assay [6], the target named is Lens culinaris agglutinin (LCA) of Comparison Example 3 (Lens culinaris) (UniProt P02870). The description is as above.
Assay [7] has as its target α-fetoprotein-L3 (prepared from the culture supernatant of human liver cancer cells) (human) (UniProt P02771). Description: ELISA, α-fetoprotein-L3 coated at 0.01 µg/ml, biotin-labeled lectin. For orientation: ELISA stands for enzyme-linked immunosorbent assay.
Assay [8] concerns the target α-fetoprotein (derived from human umbilical cord blood serum, mainly L1-type sugar chain) (human) (UniProt P02771). Description: ELISA, α-fetoprotein coated at 0.01 µg/ml, biotin-labeled lectin.
The next assay concerns the target Transferrin (human) (human, UniProt P02787 20-698, N-linked glycans without L-fucose α1→6). Description: Western blotting, glycoprotein on PVDF stained with biotin-labeled lectin. As for the experimental part: (§1) The film was immersed in 10 mM Tris buffer solution including 0.8% NaCl added with 1% BSA (pH 7.4, 1% BSA+TBS) and was shaken at a room temperature for one hour. Then, the film was cleaned three times by 10 mM Tris buffer solution (pH 7.4, TBS) including 0.8% NaCl. Then, the film was immersed in biotin-labeled lectin solution (2 µg/ml) and was shaken at a room temperature for one hour. Then, the film was cleaned three times by TBS. Then, the film was immersed in the HRP label streptavidin solution at 1 µg/ml (Vector Laboratories) and was shaken at a room temperature for 30 minutes. After the film was cleaned three times by TBS, a POD immunostain set (Wako Pure Chemical Industries, Ltd.) was used to perform a staining test. The staining test is to detect glycoprotein by the western blotting using biotin-labeled lectin. FIG. 13 to FIG. 17 are photographs showing the following glycoproteins stained by PTL (FIG. 13), SRL (FIG. 14), AAL (FIG. 15), AOL (FIG. 16), or LCA (FIG. 17).
(In general: A western blot detects proteins with antibodies after separation by electrophoresis.)

Another assay concerns the target T1, Bovine serum albumin (bovine, UniProt P02769 25-607).
T1 construct: Control protein without a sugar chain; also called Bovine blood serum albumin; Blood serum albumin (bovine)
Description: ELISA, glycoprotein coated, biotin-labeled lectin; relative value with thyroglobulin = 100%. As for the experimental part:
(§2) The glycoprotein and albumin as protein not including a sugar chain as a control were dissolved in 0.1 M carbonic acid buffer solution (pH 9.5) at 1 mg/ml. Then, the resultant solution was added to a microtiter plate (Nunc 439454) and was incubated at 4 degrees C. overnight. Then, the resultant solution was cleaned by 0.05% Tween/PBS three times. Thereafter, 1% BSA/PBS was added to wells and the solution was incubated at 37 degrees C. for one hour. Then, after the solution was cleaned by 0.05% Tween/PBS three times, biotin labeled-lectin appropriately diluted by 1% BSA/0.05% Tween/PBS was added to the wells and the solution was incubated at 37 degrees C. for one hour. After the solution was cleaned by 0.05% Tween/PBS three times, HRP labeled streptavidin solution diluted by 1% BSA/0.05% Tween/PBS was added to wells and the solution was incubated at 37 degrees C. for 30 minutes. After the solution was cleaned by 0.05% Tween/PBS three times, TMB Peroxidase substrate system (KPL) was added and the resultant solution was incubated at a room temperature for 10 minutes while light was being blocked.
(§3) The reaction was stopped by 1 M phosphoric acid. Then, a microplate reader (MPR-A4i, TOSOH CORPORATION) was used to measure the absorbance at 450 nm. Based on this value, reaction value ([absorbance at 450 nm of a well for which glycoprotein was solid-phased to the plate and
(§4) […] reacted]−[absorbance at 450 nm of a well for which glycoprotein was not solid-phased to the plate and reacted] was calculated. Next, for each lectin, the interaction strength (relative value) to each glycoprotein was calculated based on an assumption that the glycoprotein (thyroglobulin) value was 100%. The calculation result is shown in Table 9 and FIG. 19 to FIG. 23.

A further assay deals with Thyroglobulin (pig) (pig, UniProt F1RRV3 20-2692, L-fucose α1→6 N-linked glycans). Description: ELISA, glycoprotein coated, biotin-labeled lectin; thyroglobulin set to 100%; ⊚ = relative values of 120 to 80. On the procedure:
The glycoprotein and albumin as protein not including a sugar chain as a control were dissolved in 0.1 M carbonic acid buffer solution (pH 9.5) at 1 mg/ml. Then, the resultant solution was added to a microtiter plate (Nunc 439454) and was incubated at 4 degrees C. overnight. Then, the resultant solution was cleaned by 0.05% Tween/PBS three times. Thereafter, 1% BSA/PBS was added to wells and the solution was incubated at 37 degrees C. for one hour. Then, after the solution was cleaned by 0.05% Tween/PBS three times, biotin labeled-lectin appropriately diluted by 1% BSA/0.05% Tween/PBS was added to the wells and the solution was incubated at 37 degrees C. for one hour. […]
as §3
In contrast with this, in the case of PTL of Example 1 and SRL of Example 2, only glycoprotein having sL-fucose α1→6 sugar chain is detected and a non-L-fucose α1→6 reacted]−[absorbance at 450 nm of a well for which glycoprotein was not solid-phased to the plate and reacted] was calculated. […]

The target of the next assay is Lactoferrin (bovine) (bovine, UniProt P24627 20-708, L-fucose α1→6 N-linked glycans). Description: Western blotting, glycoprotein on PVDF stained with biotin-labeled lectin; ◯ = Detected. On the procedure: as §1
The target of a further assay is T2, Invertase (yeast) (yeast, UniProt P00724 20-532, high mannose-type sugar chains).
T2 sequence (looked up): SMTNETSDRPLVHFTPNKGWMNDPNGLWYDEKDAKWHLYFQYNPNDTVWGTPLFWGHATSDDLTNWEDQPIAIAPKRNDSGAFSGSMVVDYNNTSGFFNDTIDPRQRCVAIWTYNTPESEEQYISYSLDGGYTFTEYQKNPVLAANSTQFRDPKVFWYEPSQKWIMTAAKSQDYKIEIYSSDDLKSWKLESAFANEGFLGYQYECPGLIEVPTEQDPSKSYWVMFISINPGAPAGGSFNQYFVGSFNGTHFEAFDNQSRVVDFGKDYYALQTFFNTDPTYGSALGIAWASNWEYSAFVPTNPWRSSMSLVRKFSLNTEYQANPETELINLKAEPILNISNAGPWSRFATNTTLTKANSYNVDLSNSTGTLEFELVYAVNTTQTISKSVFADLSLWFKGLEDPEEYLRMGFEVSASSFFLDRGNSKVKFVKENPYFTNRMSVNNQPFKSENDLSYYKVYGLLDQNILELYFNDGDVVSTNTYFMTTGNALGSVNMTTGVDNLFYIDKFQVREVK
Description: ELISA, glycoprotein coated, biotin-labeled lectin; relative value with thyroglobulin = 100%. As for the experimental part: as §2, §3, §4

Sequence of α-fetoprotein (derived from human umbilical cord blood serum, mainly L1-type sugar chain) (human) (P02771 19-609 limits assumed): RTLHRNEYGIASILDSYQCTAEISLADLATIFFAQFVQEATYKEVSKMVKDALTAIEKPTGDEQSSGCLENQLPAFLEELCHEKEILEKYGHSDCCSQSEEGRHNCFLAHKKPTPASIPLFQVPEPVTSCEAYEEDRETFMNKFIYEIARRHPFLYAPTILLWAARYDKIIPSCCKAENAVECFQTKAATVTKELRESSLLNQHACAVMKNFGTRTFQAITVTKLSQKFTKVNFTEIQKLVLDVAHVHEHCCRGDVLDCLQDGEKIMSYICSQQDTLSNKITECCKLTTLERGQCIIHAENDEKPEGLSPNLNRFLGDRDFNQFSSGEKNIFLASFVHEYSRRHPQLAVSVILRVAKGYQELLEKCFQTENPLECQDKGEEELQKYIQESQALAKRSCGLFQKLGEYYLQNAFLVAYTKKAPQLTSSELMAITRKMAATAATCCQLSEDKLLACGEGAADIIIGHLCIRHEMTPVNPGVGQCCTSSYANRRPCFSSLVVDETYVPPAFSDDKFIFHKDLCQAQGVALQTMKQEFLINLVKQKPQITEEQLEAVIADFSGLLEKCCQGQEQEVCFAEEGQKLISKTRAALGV
Sequence of α-fetoprotein-L3 (prepared from the culture supernatant of human liver cancer cells) (human) (P02771 19-609 limits assumed): as above
Sequence of Aspergillus oryzae lectin (AOL) of Comparison Example 2 (Aspergillus oryzae) (Q8TGE0 whole entry): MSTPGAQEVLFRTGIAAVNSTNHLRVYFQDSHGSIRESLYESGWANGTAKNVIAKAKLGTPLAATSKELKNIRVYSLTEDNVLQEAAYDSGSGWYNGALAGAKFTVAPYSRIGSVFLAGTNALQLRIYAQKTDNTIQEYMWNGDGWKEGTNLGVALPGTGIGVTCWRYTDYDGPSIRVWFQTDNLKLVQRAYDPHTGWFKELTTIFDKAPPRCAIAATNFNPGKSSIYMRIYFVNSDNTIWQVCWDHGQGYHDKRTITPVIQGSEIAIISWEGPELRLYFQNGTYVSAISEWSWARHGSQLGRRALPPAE
Sequence of Transferrin (human) (P02787 20-698 limits assumed): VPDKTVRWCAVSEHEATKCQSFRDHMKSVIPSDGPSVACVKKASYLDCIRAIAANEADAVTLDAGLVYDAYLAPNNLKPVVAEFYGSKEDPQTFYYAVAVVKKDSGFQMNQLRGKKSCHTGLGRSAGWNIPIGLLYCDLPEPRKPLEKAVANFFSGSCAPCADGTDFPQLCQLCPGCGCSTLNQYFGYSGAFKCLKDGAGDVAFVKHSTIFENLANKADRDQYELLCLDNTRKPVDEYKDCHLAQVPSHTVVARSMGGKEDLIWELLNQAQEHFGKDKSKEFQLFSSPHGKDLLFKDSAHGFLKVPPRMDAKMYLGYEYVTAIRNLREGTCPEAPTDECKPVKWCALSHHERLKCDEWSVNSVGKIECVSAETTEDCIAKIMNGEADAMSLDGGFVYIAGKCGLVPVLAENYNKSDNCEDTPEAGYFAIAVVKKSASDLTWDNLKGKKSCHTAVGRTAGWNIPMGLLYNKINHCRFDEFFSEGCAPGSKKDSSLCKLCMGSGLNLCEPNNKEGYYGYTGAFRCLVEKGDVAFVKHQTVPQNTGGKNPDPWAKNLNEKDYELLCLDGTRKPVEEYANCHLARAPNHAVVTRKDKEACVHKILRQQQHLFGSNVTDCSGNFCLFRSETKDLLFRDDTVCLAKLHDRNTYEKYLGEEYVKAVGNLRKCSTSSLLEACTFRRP
T1 sequence (P02769 25-607 limits assumed): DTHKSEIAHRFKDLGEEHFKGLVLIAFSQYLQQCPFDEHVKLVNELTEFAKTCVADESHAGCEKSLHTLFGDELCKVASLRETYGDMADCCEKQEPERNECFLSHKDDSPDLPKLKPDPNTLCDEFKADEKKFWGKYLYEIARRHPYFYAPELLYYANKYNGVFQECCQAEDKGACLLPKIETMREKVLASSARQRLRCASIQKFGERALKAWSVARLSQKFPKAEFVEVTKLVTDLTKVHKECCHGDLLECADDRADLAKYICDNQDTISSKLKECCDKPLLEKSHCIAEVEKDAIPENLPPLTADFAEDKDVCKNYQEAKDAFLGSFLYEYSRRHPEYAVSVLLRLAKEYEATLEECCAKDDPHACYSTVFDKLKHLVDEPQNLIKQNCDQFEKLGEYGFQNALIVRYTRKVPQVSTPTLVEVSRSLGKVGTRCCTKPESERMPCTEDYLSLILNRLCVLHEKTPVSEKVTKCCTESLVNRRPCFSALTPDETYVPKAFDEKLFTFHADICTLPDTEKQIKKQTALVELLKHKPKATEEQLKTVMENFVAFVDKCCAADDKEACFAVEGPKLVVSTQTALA
Sequence of Thyroglobulin (pig) (F1RRV3 20-2692 limits assumed): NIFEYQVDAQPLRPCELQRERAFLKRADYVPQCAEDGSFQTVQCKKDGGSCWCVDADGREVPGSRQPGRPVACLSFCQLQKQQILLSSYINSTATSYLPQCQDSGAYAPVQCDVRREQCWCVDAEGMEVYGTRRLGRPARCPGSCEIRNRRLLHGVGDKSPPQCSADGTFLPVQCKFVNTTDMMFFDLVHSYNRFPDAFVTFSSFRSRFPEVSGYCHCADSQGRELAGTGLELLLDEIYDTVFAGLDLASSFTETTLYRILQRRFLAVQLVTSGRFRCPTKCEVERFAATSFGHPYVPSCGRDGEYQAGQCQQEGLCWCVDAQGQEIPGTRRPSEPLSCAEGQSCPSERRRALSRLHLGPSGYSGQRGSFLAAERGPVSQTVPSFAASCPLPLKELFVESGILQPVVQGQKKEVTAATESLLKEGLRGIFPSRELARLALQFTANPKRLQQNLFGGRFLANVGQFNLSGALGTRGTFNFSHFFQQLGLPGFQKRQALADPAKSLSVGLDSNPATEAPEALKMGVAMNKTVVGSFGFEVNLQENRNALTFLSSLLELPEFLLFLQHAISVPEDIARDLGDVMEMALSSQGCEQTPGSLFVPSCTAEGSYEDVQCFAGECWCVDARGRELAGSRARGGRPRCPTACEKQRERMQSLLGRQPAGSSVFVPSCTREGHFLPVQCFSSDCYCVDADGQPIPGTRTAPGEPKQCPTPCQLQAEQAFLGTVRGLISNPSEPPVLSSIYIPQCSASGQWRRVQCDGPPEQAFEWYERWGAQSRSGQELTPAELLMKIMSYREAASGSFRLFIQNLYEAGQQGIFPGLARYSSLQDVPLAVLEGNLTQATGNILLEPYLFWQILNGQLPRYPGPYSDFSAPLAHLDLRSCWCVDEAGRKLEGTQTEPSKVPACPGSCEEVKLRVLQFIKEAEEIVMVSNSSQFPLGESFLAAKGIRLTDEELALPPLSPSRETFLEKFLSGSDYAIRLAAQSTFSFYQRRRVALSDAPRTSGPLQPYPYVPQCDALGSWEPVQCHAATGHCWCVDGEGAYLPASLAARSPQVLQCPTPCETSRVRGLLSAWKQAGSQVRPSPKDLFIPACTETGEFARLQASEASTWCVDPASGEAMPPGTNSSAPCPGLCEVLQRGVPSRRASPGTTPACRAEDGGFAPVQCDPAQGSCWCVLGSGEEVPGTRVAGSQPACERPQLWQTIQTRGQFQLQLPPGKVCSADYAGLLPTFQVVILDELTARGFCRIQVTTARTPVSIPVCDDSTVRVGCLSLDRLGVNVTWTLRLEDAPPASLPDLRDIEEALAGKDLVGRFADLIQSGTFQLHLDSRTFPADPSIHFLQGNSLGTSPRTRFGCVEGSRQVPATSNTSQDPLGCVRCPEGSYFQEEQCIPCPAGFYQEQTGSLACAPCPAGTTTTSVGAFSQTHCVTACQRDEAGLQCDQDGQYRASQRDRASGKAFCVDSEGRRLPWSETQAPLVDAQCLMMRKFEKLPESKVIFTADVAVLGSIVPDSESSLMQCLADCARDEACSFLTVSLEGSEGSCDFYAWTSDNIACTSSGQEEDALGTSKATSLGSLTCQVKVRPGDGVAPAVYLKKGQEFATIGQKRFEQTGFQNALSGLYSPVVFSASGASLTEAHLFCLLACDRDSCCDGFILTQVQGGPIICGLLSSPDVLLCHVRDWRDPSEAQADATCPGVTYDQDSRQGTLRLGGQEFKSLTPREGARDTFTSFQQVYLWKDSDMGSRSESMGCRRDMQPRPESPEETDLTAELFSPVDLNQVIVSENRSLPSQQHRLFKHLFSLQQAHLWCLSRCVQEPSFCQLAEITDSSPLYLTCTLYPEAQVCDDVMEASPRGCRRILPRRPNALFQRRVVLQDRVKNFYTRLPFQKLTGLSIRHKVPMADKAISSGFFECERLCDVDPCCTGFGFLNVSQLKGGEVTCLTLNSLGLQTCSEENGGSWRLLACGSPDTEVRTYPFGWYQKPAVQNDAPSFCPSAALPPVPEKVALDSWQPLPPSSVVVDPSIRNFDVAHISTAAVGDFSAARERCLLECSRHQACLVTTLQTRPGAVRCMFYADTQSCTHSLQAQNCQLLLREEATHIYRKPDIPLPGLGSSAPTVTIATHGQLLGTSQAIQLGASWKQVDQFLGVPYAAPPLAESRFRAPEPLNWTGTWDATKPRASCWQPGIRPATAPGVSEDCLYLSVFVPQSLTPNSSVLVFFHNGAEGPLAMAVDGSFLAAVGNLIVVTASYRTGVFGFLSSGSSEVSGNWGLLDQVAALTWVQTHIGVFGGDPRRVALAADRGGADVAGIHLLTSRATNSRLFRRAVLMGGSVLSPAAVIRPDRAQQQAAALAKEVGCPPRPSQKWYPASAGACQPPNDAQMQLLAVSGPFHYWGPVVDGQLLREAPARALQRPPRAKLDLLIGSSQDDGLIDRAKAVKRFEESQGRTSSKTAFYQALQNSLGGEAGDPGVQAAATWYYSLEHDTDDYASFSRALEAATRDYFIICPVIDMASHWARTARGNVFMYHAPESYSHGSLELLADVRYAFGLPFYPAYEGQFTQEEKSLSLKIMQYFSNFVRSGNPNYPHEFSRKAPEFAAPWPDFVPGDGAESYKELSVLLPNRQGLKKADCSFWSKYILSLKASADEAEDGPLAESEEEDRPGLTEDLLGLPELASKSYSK

As to Mucin (pig), the minimum inhibition concentration is 62.5 µl/ml in assay [1] and 15.6 µl/ml in assay [2].
Take “Thyroglobulin (Table 3 and affinity column, species not stated)”: the minimum inhibition concentration in assay [3] was determined as 62.5 µl/ml; in [2], 125 µl/ml; in assay [4] it was 250 µl/ml; in assay [5], 250 µl/ml; in assay [6] it was 62.5 µl/ml.
“Pholiota terrestris lectin (PTL) of Example 1”: in [7], the reaction value (absorbance at 450 nm, blank subtracted) (absorbance at 450 nm) was 1.55.
In assay [6], Asialofetuin had a minimum inhibition concentration of 250 µl/ml.
With “Aleuria aurantia lectin (AAL) of Comparison Example 1 (from UniProt P18891 2-313)”, the reaction value (absorbance at 450 nm, blank subtracted) (absorbance at 450 nm) in [7] came out at 0.795.
Turning to “Aspergillus oryzae lectin (AOL) of Comparison Example 2”, the values for the reaction value (absorbance at 450 nm, blank subtracted) (absorbance at 450 nm) in assay [7] and in assay [8] were 0.898 and 0.011, respectively.
“Lens culinaris agglutinin (LCA) of Comparison Example 3 (from UniProt P02870 31-210; P02870 218-269)”: the reaction value (absorbance at 450 nm, blank subtracted) (absorbance at 450 nm) was 0.455 in assay [7] and 0.01 in [8].
As for Asialomucin (pig), the minimum inhibition concentration was found to be 62.5 µl/ml in [1] and 31.3 µl/ml in [2].
On to “Stropharia rugosoannulata lectin (SRL) of Example 2”, for which the reaction value (absorbance at 450 nm, blank subtracted) (absorbance at 450 nm) in assay [7] turned out to be 1.62; in assay [8], 0.031.

B1: Lens culinaris agglutinin (LCA) of Comparison Example 3 (other)
chain 1: TETTSFSITKFSPDQKNLIFQGDGYTTKGKLTLTKAVKSTVGRALYSTPIHIWDRDTGNVANFVTSFTFVIDAPSSYNVADEFTFFIAPVDTKPQTGGGYLGVFNSKEYDKTSQTVAVEFDTFYNAAWDPSNKERHIGIDVNSIKSVNTKSWNLQNGERANVVIAFNAATNVLTVTLTYP
chain 2: VTSYTLNEVVPLKDVVPEWVRIGFSATTGAEFAAHEVHSWSFHSELGGTSSS
modifications: biotin-labeled in the Western blotting and ELISA experiments
notes: Bought lectin
With B1, the values for the binding result in the assay with Transferrin (human) and with Bovine serum albumin were “no binding (tested: biotin-labeled lectin 2 µg/ml)” and “no binding (tested: relative value 10 or less)”, respectively.

B2: Aleuria aurantia lectin (AAL) of Comparison Example 1 (other, UniProt P18891 2-313, looked up)
chain: PTEFLYTSKIAAISWAATGGRQQRVYFQDLNGKIREAQRGGDNPWTGGSSQNVIGEAKLFSPLAAVTWKSAQGIQIRVYCVNKDNILSEFVYDGSKWITGQLGSVGVKVGSNSKLAALQWGGSESAPPNIRVYYQKSNGSGSSIHEYVWSGKWTAGASFGSTVPGTGIGATAIGPGRLRIYYQATDNKIREHCWDSNSWYVGGFSASASAGVSIAAISWGSTPNIRVYWQKGREELYEAAYGGSWNTPGQIKDASRPTPSLPDTFIAANSSGNIDISVFFQASGVSLQQWQWISGKGWSIGAVVPTGTPAGW
modifications: biotin-labeled in the Western blotting and ELISA experiments
notes: Bought lectin
In the case of B2, the binding result with Thyroglobulin (pig) is recorded as “binds”; in the assay with Lactoferrin (bovine) it was “binds”; with Transferrin (human), “no binding (tested: biotin-labeled lectin 2 µg/ml)”; with Invertase (yeast) it was “no binding (tested: relative value 10 or less)”; with Bovine serum albumin, “no binding (tested: relative value 10 or less)”.
